Assay results published in patent US20130171070A1 (Genentech, published 2013).

molecular target: T1, Human factor D (Advanced Research Inc) (human, UniProt P00746 26-253); experiment: SPR (BIAcore), human factor D amine-coupled to CM5 chip, Fab as analyte, 1:1 model, global fit
T1 construct: Amine-coupled directly to a CM5 chip for BIAcore; also called factor D antigen
Protocol: Immobilization—Human factor D (Advanced Research Inc, 0.1 mg/ml) was directly immobilized onto the CM5 chip (BiaCore) using amine-coupling method. The procedure is briefly described as following: (1) Constant flow (PBS) is at 5 μl/min, (2) Injection of 35 μl EDC/NHS (1:1). (3) Injection of 35 μl of human factor D in acetate buffer, pH 4.5. (4) Block the activated group by injection of 35 μl etholamine. (5) Clean-up the surface by 5 μl 10 mM Glycine pH 1.5.
Kinetic analysis—All anti-human factor D Fabs were diluted in PBS buffer. Each sample was prepared in a series of concentrations: 12.5 nM, 25 nM. 50 nM, 75 nM, 100 nM, 125 nM, and 150 nM, with 40 μl injection pulse at high acquisition rate. Regeneration was accomplished by applying 5 μl pulse of 10 mM Glycine at pH 1.5. Kinetic parameters were obtained by fitting Fabs binding traces to 1:1 binding model under pseudo-first order kinetic using BIAvaluation version 3.0. All data are obtained by global fitting routine.

T1 sequence (P00746 26-253 limits assumed): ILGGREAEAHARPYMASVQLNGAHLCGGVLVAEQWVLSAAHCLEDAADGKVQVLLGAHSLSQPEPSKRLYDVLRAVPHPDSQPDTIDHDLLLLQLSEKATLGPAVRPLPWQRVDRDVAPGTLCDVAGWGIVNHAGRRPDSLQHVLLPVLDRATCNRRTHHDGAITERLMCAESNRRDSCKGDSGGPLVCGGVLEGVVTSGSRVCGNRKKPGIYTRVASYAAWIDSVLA

Kd	koff	kon	Binder
2.7 nM	0.0012 s⁻¹	440000 M⁻¹ s⁻¹	chimeric 166-32 Fab (Fab, V domains shown, Tested as a Fab; also called chimeric Fab) VH: QIQLVQSGPELKKPGETVKISCKASGYTFTNYGMNWVKQAPGKGLKWMGWINTYTGETTYADDFKGRFVFSLETSASTAYLEINNLKNEDMATYFCEREGGVDNWGQGTTLTVSS VL: ETTVTQSPASLSMAIGEKVTIRCITSTDIDDDMNWYQQKPGEPPKLLISGGNTLRPGVPSRFSSSGYGADFVFTIDNMLSEDVADYYCLQSDNLPYTFGGGTRLEIK
0.33 nM	0.00019 s⁻¹	570000 M⁻¹ s⁻¹	humanized anti-Factor D Fab clone #250 (Fab, V domains shown) VH: QVQLVQSGPELKKPGASVKVSCKASGYTFTNYGLNWVRQAPGQGLEWMGWINTYTGETTYADDFKGRFVFSLDTSVSTAYLQISSLKAEDTAVYYCEREGGVNNWGQGTLVTVSS VL: DIQVTQSPSSLSASVGDRVTITCITSTDIDDDMNWYQQKPGKVPKLLISHGNTLRPGVPSRFSGSGSGTDFTLTISSLQPEDVATYYCLQSDSLPYTFGQGTKLEIK
0.33 nM	0.00018 s⁻¹	820000 M⁻¹ s⁻¹	humanized anti-Factor D Fab clone #416 (Fab, V domains shown) VH: QVQLVQSGPELKKPGASVKVSCKASGYTFTSYGMNWVRQAPGQGLEWMGWINTYTGETTYADDFKGRFVFSLDTSVSTAYLQISSLKAEDTAVYYCEREGGVNNWGQGTLVTVSS VL: DIQVTQSPSSLSASVGDRVTITCITSTDIDDDMNWYQQKPGKVPKLLISDGNTLRPGVPSRFSGSGSGTDFTLTISSLQPEDVATYYCLQSDSLPYTFGQGTKLEIK
2.7 nM	0.00098 s⁻¹	360000 M⁻¹ s⁻¹	humanized anti-Factor D Fab clone #56 (Fab, V domains shown) VH: QVQLVQSGPELKKPGASVKVSCKASGYTFTNYGMNWVKQAPGQGLEWMGWINTYTGETTYADDFKGRFVFSLDTSVSTAYLQISSLKAEDTATYYCEREGGVDNWGQGTLVTVSS VL: DIQVTQSPSSLSASVRDRVTITCITSTDIDDDMNWYQQKPGKVPKLLISGGNTLRPGVPSRFSGSGSGTDFTLTISSLQPEDVATYYCLQSDNLPYTFGQGTKLEIK
